Like-named read-outs stand apart in the source and are kept apart here.
Columns and labels:
Assay in all cases: AlphaScreen or HTRF
[1] = biological target: HIS-tagged BRD4 short isoform (BRD4-S), wild type (human) (UniProt O60885)
[2] = biological target: HIS-tagged BRD4 short isoform (BRD4-S), wild type (human) (UniProt O60885); remark: listed apart in the source
[3] = biological target: H4 K12acK16ac nucleosome (human | Xenopus laevis) (UniProt P04908)
[4] = biological target: unmodified nucleosome (human | Xenopus laevis) (UniProt P04908)
[5] = biological target: H4 K12acK16ac nucleosome (human | Xenopus laevis) (UniProt P04908); remark: listed apart in the source
[6] = biological target: unmodified nucleosome (human | Xenopus laevis) (UniProt P04908); remark: listed apart in the source
[7] = biological target: H4 K12acK16ac nucleosome (human | Xenopus laevis) (UniProt P04908); remark: listed apart in the source
[8] = biological target: unmodified nucleosome (human | Xenopus laevis) (UniProt P04908); remark: listed apart in the source
[9] = biological target: H4 K12acK16ac nucleosome (human | Xenopus laevis) (UniProt P04908); remark: listed apart in the source
[10] = biological target: unmodified nucleosome (human | Xenopus laevis) (UniProt P04908); remark: listed apart in the source
[11] = biological target: H4 K12acK16ac nucleosome (human | Xenopus laevis) (UniProt P04908); remark: listed apart in the source
[12] = biological target: unmodified nucleosome (human | Xenopus laevis) (UniProt P04908); remark: listed apart in the source
[13] = biological target: H4 K12acK16ac nucleosome (human | Xenopus laevis) (UniProt P04908); remark: listed apart in the source

IC50 [1]	IC50 [2]	IC50 after accounting for the 12 nucleosomes per array [2]	Kd [3]	Kd [4]	Kd [5]	Kd [6]	Kd [7]	Kd [8]	Kd [9]	Kd [10]	Kd [11]	Kd [12]	Kd [13]	Substance
1.3 nM	3.3 nM	40 nM	–	–	–	–	–	–	–	–	–	–	–	12x nucleosome array, unmodified histones (from UniProt P04908 1-130; P06899 1-126) (complex)
–	–	–	42 nM	37 nM	26 nM	100 nM	8 nM	6.6 nM	37 nM	43 nM	18 nM	71 nM	12.2 nM	HIS-tagged BRD4 short isoform (BRD4-S), wild type (from UniProt O60885-2 2-722) (natural protein)
2.4 nM	1 nM	12 nM	–	–	–	–	–	–	–	–	–	–	–	12x nucleosome array, H4 K12acK16ac histones (from UniProt P04908 1-130; P06899 1-126; P62799 1-103) (complex)
